Results taken from patent US9328139B2, “Cyclin based inhibitors of CDK2 and CDK4” (University of South Carolina, priority 2010, dated 2016).
Read-outs that look alike come from different tables or passages of the source.

Tests used:
[1] = test system: retinoblastoma (Rb)-positive tumor cells; settings: cited from earlier work
CDK4/Cyclin D1 = target: T1, CDK4/Cyclin D1 (Homo sapiens, UniProt P24385); assay: CDK4/Cyclin D1 in vitro kinase assay (32P filter capture, GST-Rb substrate); format: biochemical
T1 construct: performed using full-length recombinant CDK2/cyclin A2 and CDK4/Cyclin D1; GST (N); purchased SignalChem, Richmond, Canada; host or cells: Sf9 insect cells (baculovirus)
Experimental: CDK2/Cyclin A2 and CDK4/Cyclin D1 kinase assays were performed using full-length recombinant CDK2/cyclin A2 and CDK4/Cyclin D1 co-expressed by baculovirus in Sf9 insect cells using an N-terminal GST tag on both proteins. […] The [^32P]-ATP Assay cocktail was prepared in a designated radioactive working area by adding 150 ul of 10 mM ATP stock solution, 100 ul[^32P]-ATP (1 mCi/100 ul), 5.75 ml of kinase assay buffer I. 10 mM ATP Stock Solution was prepared by dissolving 55 mg of ATP in 10 ml of kinase assay buffer I. Store 200 μl aliquots at −20° C. […] The reaction was initiated by the addition of 5 μl [^32P]-ATP assay cocktail bringing the final volume up to 25 μl and incubating the mixture in a water bath at 30° C. for 15 minutes. After the incubation period, the reaction was terminated by spotting 20 μl of the reaction mixture onto individual pre-cut strips of phophocellulose P81 paper. The pre-cut P81 strip was air-dried and sequentially washed in a 1% phosphoric acid solution with constant gentle stirring. Radioactivity on the P81 paper was counted in the presence of scintillation fluid on a scintillation counter. […]
Activities of peptides previously tested against CDK2A and CDK4D were determined using this assay format.

T1 sequence (P24385 whole entry): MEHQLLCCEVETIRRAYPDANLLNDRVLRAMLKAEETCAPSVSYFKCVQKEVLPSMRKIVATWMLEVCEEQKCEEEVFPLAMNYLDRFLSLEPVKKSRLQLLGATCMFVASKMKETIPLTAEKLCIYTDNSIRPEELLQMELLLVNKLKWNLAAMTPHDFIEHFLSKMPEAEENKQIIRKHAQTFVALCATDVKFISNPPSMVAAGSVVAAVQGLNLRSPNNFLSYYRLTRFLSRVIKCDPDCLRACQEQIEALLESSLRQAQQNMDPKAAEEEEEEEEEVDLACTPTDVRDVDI
T1 sequence (P11802 whole entry partner): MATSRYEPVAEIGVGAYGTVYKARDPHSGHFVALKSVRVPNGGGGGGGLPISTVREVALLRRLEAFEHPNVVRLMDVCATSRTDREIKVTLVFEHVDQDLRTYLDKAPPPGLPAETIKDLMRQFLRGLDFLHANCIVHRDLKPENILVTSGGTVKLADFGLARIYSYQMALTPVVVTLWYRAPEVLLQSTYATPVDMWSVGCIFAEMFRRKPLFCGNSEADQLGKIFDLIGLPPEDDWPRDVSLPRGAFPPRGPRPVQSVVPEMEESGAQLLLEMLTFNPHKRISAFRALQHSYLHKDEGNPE

Compound	cell cycle effect [1]	activity in the CDK4/cyclin D1 kinase assay (in words) (CDK4/Cyclin D1)	activity in the CDK4/cyclin D1 kinase assay (in words) (CDK4/Cyclin D1; listed as p21 X8 derivative)
CC(=O)c1c(C)c2cnc(Nc3ccc(N4CCNCC4)cn3)nc2n(C2CCCC2)c1=O [PD0332991]	G1 arrest		
HAKRRLIX8: HAKRRLIX with X8 = 4-pyridylalanine, SEQ ID NO: 24		no observable activity	loses all activity
